The values below are quoted from earlier work in article PMC4856733.

The data set concerns the target vinculin tail tail (Homo sapiens) (UniProt P18206).

On to “vinculin head head (from UniProt P18206)”, for which the Kd was < 1 nM.

In general, Kd refers to a measure of binding affinity in units of concentration.
